According to patent US20090068207A1, “Compositions Containing Beta 2-Glycoprotein I-Derived Peptides for the Prevention and/or Treatment of Vascular Disease” (Vascular Biogenics Ltd., priority 2005, published 2009):
Where “and” joins values, the source holds several entries; their conditions need not be identical. Identical values can stand only once.

Assays:
[1] = tested on: LDL-RD mice; assay: Aortic sinus lesion area after nasal tolerance induction, Western diet; assay type: in vivo; settings: END, intranasal 10 μg/mouse every other day for 5 days, then Western diet, mean ± S.E
Experimental: Nasal Tolerance: Nasal tolerance was induced by intranasal administration of oxidized LDL, β2GPI, β2GPI-derived peptides or HSP65, in a total volume of 10 μl PBS. Intranasal administration was performed on mildly sedated mice (12-16 weeks old), each mouse receiving 3 doses of antigen per dose, in the indicated concentrations, every other day. Atherogenesis was induced by 5 weeks of a Western diet initiated on the day following the last intranasal administration, or assessed (in Apo E KO mice) after 8 weeks on a chow diet. Controls received equal amounts of BSA and/or PBS, as indicated, in an identical regimen. Plasma was obtained for assessment of cholesterol and triglyceride levels from all mice, and the mice were sacrificed for evaluation of atherosclerosis, as described hereinbelow, after 5 weeks Western diet, or (in Apo E KO mice) after 8 weeks on a chow diet.
Assessment of Atherosclerosis: Quantification of atherosclerotic fatty streak lesions was done by calculating the lesion size in the aortic sinus as previously described (16) and by calculating the lesion size in the aorta. Briefly, after perfusion with saline Tris EDTA, the heart and the aorta were removed from the animals and the peripheral fat cleaned carefully. The upper section of the heart was embedded in OCT medium (10.24% w/w polyvinyl alcohol; 4.26% w/w polyethylene glycol; 85.50% w/w nonreactive ingredients) and frozen. Every other section (10 μm thick) throughout the aortic sinus (400 μm) was taken for analysis. The distal portion of the aortic sinus was recognized by the three valve cusps that are the junctions of the aorta to the heart. Sections were evaluated for fatty streak lesions after processing and staining with oil-red O, according to Paigen et al (Atherosclerosis, 1987; 68:231-40). Lesion areas per section were scored on a grid (17) by an observer counting unidentified, numbered specimens. The aorta was dissected from the heart and surrounding adventitious tissue was removed. Fixation of the aorta and Sudan staining of the vessels were performed as previously described (21).
Mice were bled prior to feeding (Time 0) and at the conclusion of the experiment (End) for determination of lipid profile. Atherosclerosis was assessed in heart and aorta as described above, 8 weeks after the last feeding. Mice were weighed every 2 weeks during the experiment. All mice were fed water ad libitum and a normal chow-diet containing 4.5% fat by weight (0.02% cholesterol), up to the final antigen exposure, and then a “Western” diet until sacrifice.
Thus, nasal exposure to a low dose and an exceedingly low dose of recombinant human HSP 65 were compared for their effectiveness in suppressing atherogenesis in LDL-RD mice. 58 male 12-16 week old LDL-RD mice were divided into 4 groups.

[2] = tested on: inguinal lymph node cells; assay: Lymph node cell proliferation (stimulation index) to sensitizing antigen β2GPI after mucosal administration; assay type: in vivo, mice; settings: then immunization with human β2GPI, LDL-RD mice
Experimental: Immunization: Subcutaneous immunization with human β2GPI: Human β2GPI was prepared from human plasma pool as described above. For immunization, human β2GPI was dissolved in PBS and mixed with equal volumes of Freund's incomplete adjuvant. Immunizations were performed by single subcutaneous injection of 10 μg antigen/mouse in 0.1 ml volume. Three days following the last mucosal administration of plaque associated molecules the mice received one immunization, and were sacrificed 10 days post immunization.
Proliferation assays: Mice were exposed to the tested antigen as described for assessment of atherosclerosis, and then immunized (one to three days following the last exposure) subcutaneously with 10 μg β2GPI in 0.1 ml PBS, prepared from purified human β2GPI as described above.
Proliferation was assayed ten days after immunization with the β2GPI as follows: Draining inguinal lymph nodes were prepared by mashing the tissues on 100 mesh screens. Red blood cells were lysed with cold sterile double distilled water (6 ml) for 30 seconds and 2 ml of NaCl 3.5% was added. Incomplete medium was added (10 ml), cells were centrifuged for 7 min at 1,700 rpm, resuspended in RPMI medium and counted in a haemocytometer at 1:20 dilution (10 μl cells+190 μl Trypan Blue). Proliferation was measured by the incorporation of [^3H] Thymidine into DNA in triplicate samples of 100 μl of the packed cells (1×10^6 cells/ml) in a 96 well microtiter plate. […] Thymidine (0.5 μCi/well) was added. After an additional 12-24 hours of incubation the cells were harvested and transferred to glass fiber filters using a cell harvester (Brandel) and counted using β-counter (Lumitron). Proliferation was measured by the incorporation of [^3H] thymidine into DNA during the final 12 h of incubation. The results are expressed as the stimulation index (S.I.): the ratio of the mean radioactivity (cpm) of the antigen to the mean background (cpm) obtained in the absence of the antigen. Standard deviation was always <10% of the mean cpm.
Tolerance induced by mucosal exposure to plaque-associated molecules may be mediated by suppression of specific immune responses to antigenic portions (epitopes) of these plaque associated molecules. Lymphocyte proliferation in response to mucosal (nasal and oral) exposure to human β2GPI was measured in […]. 9 male, 5 week old LDL-RD mice were divided into 3 groups. In group A (n=3) oral tolerance was induced with 100 μg/mouse β2GPI suspended in 0.1 ml PBS, administered by gavage, as described above, every other day for 5 days. In group B (n=3) nasal tolerance was induced with 10 μg/mouse β2GPI suspended in 10 μl PBS, administered intranasally as described above, every other day for 5 days. The mice in group C (n=3) received oral administration of 200 μl PBS every other day for 5 days. Immune reactivity was stimulated in all mice by immunization with human β2GPI as described above in the Materials and Methods section, one day after the last feeding. Ten days after the immunization lymph nodes were collected for assay of proliferation (as expressed in the Stimulation Index SI). All mice were fed normal chow-diet containing 4.5% fat by weight (0.02% cholesterol) and water ad libitum.

[3] = tested on: LDL-RD mice; assay: Aortic sinus lesion area after oral administration, Western diet; assay type: in vivo; settings: for Aortic sinus lesion (μm^2): End, mean ± S.E
Experimental: Oral Tolerance: For comparison, oral tolerance to plaque-associated molecules was induced by feeding […] of antigen every other day (for a detailed account of induction of oral tolerance, see U.S. patent application Ser. No. 09/806,400 to Shoenfeld et al filed Sep. 30, 1999), in a similar regimen to the nasal tolerance. LDL-RD mice were fed by a nasogastric tube, five doses (every other day) of human or bovine β2GPI in PBS in two different concentrations (500 and 50 μg/dose).
Oral tolerance to β2GPI-derived peptides, alone or in combination was induced by feeding 100 μg of the peptides (prepared in PBS, 0.2 ml), as detailed hereinabove, every other day for a total of 5 doses of 100 μg. One day following the last feeding, all mice were switched from chow-diet to an atherogenic “Western” diet and sacrificed five weeks later.
(§1) Assessment of Atherosclerosis: Quantification of atherosclerotic fatty streak lesions was done by calculating the lesion size in the aortic sinus as previously described (16) and by calculating the lesion size in the aorta. Briefly, after perfusion with saline Tris EDTA, the heart and the aorta were removed from the animals and the peripheral fat cleaned carefully. The upper section of the heart was embedded in OCT medium (10.24% w/w polyvinyl alcohol; 4.26% w/w polyethylene glycol; 85.50% w/w nonreactive ingredients) and frozen. Every other section (10 μm thick) throughout the aortic sinus (400 μm) was taken for analysis. The distal portion of the aortic sinus was recognized by the three valve cusps that are the junctions of the aorta to the heart. […] Lesion areas per section were scored on a grid (17) by an observer counting unidentified, numbered specimens. The aorta was dissected from the heart and surrounding adventitious tissue was removed. Fixation of the aorta and Sudan staining of the vessels were performed as previously described (21).
LDL-receptor deficient (LDL-RD; LDLR −/−) mice created on a C57BL/6 background develop accelerated atherosclerosis when fed a high cholesterol diet, but not when fed a regular chow diet. In order to determine whether mucosal administration of the plaque antigen β2GPI could suppress atherogenic processes, LDL-RD mice were fed low, oral tolerance inducing doses of human and bovine β2GPI, and the assessed for alterations in response to diet.

[4] = tested on: ApoE-KO mice; assay: Aortic sinus lesion area after oral administration in ApoE-KO mice; assay type: in vivo
Text: as §1
In order to determine the protective effect of mucosal administration of β2GPI on development of atherosclerosis, adult ApoE-KO mice were treated with oral administration of human β2GPI. 20 week-old male ApoE-KO mice, having advanced atherosclerotic lesions were treated monthly with human β2GPI (50 μg/dose) or PBS (0.2 ml) in 5 oral administrations (by gavage, as described hereinabove) given every other day, for four months. Lesion area calculated from cryosections of the aortic sinus were compared between control untreated 20 week old mice, and mice following 16 weeks oral administration of β2GPI or PBS.
10-11 week-old male ApoE-KO mice, having early atherosclerotic lesions, were treated with 5 oral administrations (by gavage, as described hereinabove) given every other day of human β2GPI peptide S-4 (SEQ ID NO: 14) or human β2GPI (50 μg/dose) or PBS (0.2 ml). Lesion areas calculated from cryosections of the aortic sinus were compared between control untreated, human β2GPI treated and S-4 human β2GPI-derived peptide treated mice at 8 weeks following the last oral administration of the antigens, or of PBS.

B1: Human β2 GPI: human beta2-glycoprotein I (SEQ ID NO: 10) purified from serum (protein)
chain: MISPVLILFSSFLCHVAIAGRTCPKPDDLPFSTVVPLKTFYEPGEEITYSCKPGYVSRGGMRKFICPLTGLWPINTLKCTPRVCPFAGILENGAVRYTTFEYPNTISFSCNTGFYLNGADSAKCTEEGKWSPELPVCAPIICPPPSIPTFATLRVYKPSAGNNSLYRDTAVFECLPQHAMFGNDTITCTTHGNWTKLPECREVKCPFPSRPDNGFVNYPAKPTLYYKDKATFGCHDGYSLDGPEEIECTKLGNWSAMPSCKASCKLPVKKATVVYQGERVKIQEKFKNGMLHGDKVSFFCKNKEKKCSYTEDAQCIDGTIEVPKCFKEHSSLAFWKTDASDVKPC
In the case of B1, the “Aortic sinus lesion (μm^2)” value [1] is reported as 46250 ± 4486 μm^2, the “S.I (Stimulation Index)” value ([2]; nasal 10 μg/mouse every other day for 5 days) is reported as 2.1 ± 0.5 and the “S.I (Stimulation Index)” value ([2]; oral 100 μg/mouse every other day for 5 days) is reported as 4.4 ± 0.5. For the same molecule, the “Aortic sinus lesion (μm^2)” value ([3]; oral 50 μg) was 26563 ± 2370 μm^2, the “Aortic sinus lesion (μm^2)” value ([3]; oral 100 μg) was 30250 ± 4464 μm^2 and the “Aortic sinus lesion (μm^2)” value ([3]; oral 500 μg) was 27031 ± 3387 μm^2. For the same molecule, the “reduction of atherosclerosis as compared with BSA-fed controls” value ([3]; oral 50 μg/dose) was 45%, the “reduction of atherosclerosis (aortic sinus lesion size) as compared with BSA- and PBS-fed controls” value ([3]; oral 100 μg/dose, 5 doses, Western diet 5 weeks) was 44% and the “reduction of atherosclerosis as compared with BSA-fed controls” value ([3]; oral 500 μg/dose) was 44%. The “Aortic sinus lesion (μm^2)” value ([4]; End, oral 50 μg, 5 doses, ApoE-KO mice) was 90833 ± 9502 μm^2, the “reduction of progression of atherosclerotic lesions compared to PBS controls” value ([4]; oral 50 μg, 5 doses, then 8 weeks of chow diet, 10-11 week-old ApoE-KO mice) was 47% and the “inhibition of progression of atherosclerotic lesions as compared to PBS control” value ([4]; oral 50 μg/dose, 5 administrations monthly for four months, 20 week-old ApoE-KO mice, 16 weeks) was > 30% and 35%.
